Laboratory results taken from patent publication US20190211097A1 (ADVENTIST HEALTH SYSTEM SUNBELT, published 2019).
One block for each binder: values may come before it.

Target: T1, human CD32a (FcgammaRIIa) on washed human platelets (human, UniProt P12318 34-317)
T1 sequence: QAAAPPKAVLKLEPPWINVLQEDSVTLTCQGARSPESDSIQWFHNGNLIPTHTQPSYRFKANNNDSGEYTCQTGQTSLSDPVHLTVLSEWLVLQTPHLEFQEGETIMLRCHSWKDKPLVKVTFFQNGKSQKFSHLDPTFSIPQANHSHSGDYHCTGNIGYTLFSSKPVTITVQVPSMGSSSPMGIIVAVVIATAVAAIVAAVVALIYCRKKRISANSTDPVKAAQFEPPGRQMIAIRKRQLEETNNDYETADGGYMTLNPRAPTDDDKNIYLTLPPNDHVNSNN
Assay: cell-based or functional assay

- mAb concentration that inhibited 500 nM M90+CD40L IC-induced platelet aggregation: 3 nM
B1: effector-deficient humanized IV.3.2 IgG1 E269R mAb (antibody)
heavy: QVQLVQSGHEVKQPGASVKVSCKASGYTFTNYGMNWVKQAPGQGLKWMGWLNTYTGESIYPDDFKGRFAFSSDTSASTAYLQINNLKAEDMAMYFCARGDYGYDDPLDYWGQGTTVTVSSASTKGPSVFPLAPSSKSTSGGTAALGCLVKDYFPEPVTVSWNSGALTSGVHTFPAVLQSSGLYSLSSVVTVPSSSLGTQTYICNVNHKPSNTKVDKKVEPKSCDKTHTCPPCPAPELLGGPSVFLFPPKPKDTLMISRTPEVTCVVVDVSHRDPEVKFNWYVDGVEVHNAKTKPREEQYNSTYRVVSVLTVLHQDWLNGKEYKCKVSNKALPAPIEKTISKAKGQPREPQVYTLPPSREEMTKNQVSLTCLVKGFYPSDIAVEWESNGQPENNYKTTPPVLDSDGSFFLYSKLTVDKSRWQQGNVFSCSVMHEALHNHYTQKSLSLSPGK
light: DIVMTQTPLSLPVTPGEPASISCRSSKSLLHTNGNTYLHWYLQKPGQSPQLLIYRMSVLASGVPDRFSGSGSGTDFTLKISRVEAEDVGVYYCMQHLEYPLTFGGGTKVEIKRTVAAPSVFIFPPSDEQLKSGTASVVCLLNNFYPREAKVQWKVDNALQSGNSQESVTEQDSKDSTYSLSSTLTLSKADYEKHKVYACEVTHQGLSSPVTKSFNRGEC

- mAb concentration that inhibited 500 nM M90+CD40L IC-induced platelet aggregation: 15 nM
B2: effector-deficient humanized AT-10 IgG1 E269R mAb (antibody)
heavy: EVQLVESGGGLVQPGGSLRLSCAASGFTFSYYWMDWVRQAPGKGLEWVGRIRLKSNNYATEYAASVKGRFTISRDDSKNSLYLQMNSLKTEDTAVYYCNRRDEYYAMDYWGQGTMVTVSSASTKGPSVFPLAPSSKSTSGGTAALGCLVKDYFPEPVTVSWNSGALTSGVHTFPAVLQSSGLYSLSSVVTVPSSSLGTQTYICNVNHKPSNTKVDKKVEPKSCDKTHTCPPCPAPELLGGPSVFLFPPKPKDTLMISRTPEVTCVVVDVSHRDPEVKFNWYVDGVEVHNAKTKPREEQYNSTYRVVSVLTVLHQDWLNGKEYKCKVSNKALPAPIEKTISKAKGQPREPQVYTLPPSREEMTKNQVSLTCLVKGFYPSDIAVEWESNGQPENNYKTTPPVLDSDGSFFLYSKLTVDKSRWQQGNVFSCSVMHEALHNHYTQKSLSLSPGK
light: EIVLTQSPATLSLSPGERATLSCRASESVDNFGISFLAWYQQKPGQAPRLLIYGASNRATGIPARFSGSGSGTDFTLTISSLEPEDFAVYYCQQSKEVPWTFGQGTKVEIKRTVAAPSVFIFPPSDEQLKSGTASVVCLLNNFYPREAKVQWKVDNALQSGNSQESVTEQDSKDSTYSLSSTLTLSKADYEKHKVYACEVTHQGLSSPVTKSFNRGEC

- platelet aggregation by the combination of chimeric AT-10 hIgG1 E269R, chimeric IV.3 hIgG2 N297A and MDE-8 IgG1 E269R, 300 nM each: 300 nM
B3: effector-deficient chimeric IV.3 human IgG2 N297A mAb (antibody)
heavy: QIQLVQSGPELKKPGETVKISCKASGYTFTNYGMNWVKQAPGKGLKWMGWLNTYTGESIYPDDFKGRFAFSSETSASTAYLQINNLKNEDMATYFCARGDYGYDDPLDYWGQGTSVTVSSASTKGPSVFPLAPCSRSTSESTAALGCLVKDYFPEPVTVSWNSGALTSGVHTFPAVLQSSGLYSLSSVVTVPSSNFGTQTYTCNVDHKPSNTKVDKTVERKCCVECPPCPAPPVAGPSVFLFPPKPKDTLMISRTPEVTCVVVDVSHEDPEVQFNWYVDGVEVHNAKTKPREEQFASTFRVVSVLTVVHQDWLNGKEYKCKVSNKGLPAPIEKTISKTKGQPREPQVYTLPPSREEMTKNQVSLTCLVKGFYPSDIAVEWESNGQPENNYKTTPPMLDSDGSFFLYSKLTVDKSRWQQGNVFSCSVMHEALHNHYTQKSLSLSPGK
light: DIVMTQAAPSVPVTPGESVSISCRSSKSLLHTNGNTYLHWFLQRPGQSPQLLIYRMSVLASGVPDRFSGSGSGTAFTLSISRVEAEDVGVFYCMQHLEYPLTFGAGTKLELKRTVAAPSVFIFPPSDEQLKSGTASVVCLLNNFYPREAKVQWKVDNALQSGNSQESVTEQDSKDSTYSLSSTLTLSKADYEKHKVYACEVTHQGLSSPVTKSFNRGEC
